Data from paper PMC12786357.

Legend:
[1] = biological target: S. cerevisiae GPI transamidase (GPIT) complex (S. cerevisiae); experiment: cryo-EM structure; dimeric GPIT peak of the SEC, about 5 mg/mL, in GDN; overall resolution 4.4 Å; two copies of the monomer model docked as rigid bodies
[2] = anti-FLAG western blot, HEK293F; conditions: glycan lost; control: wild type
[3] = FACS, surface GFP-V5-CWP2 in yeast chromosomal mutants; conditions: glycan lost; control: wild type

Molecule: S. cerevisiae GPI transamidase (GPIT) complex
- stoichiometry N [1]: 2

B1: Gpi16: N29Q (protein)
parent chain: MILTLAYFMLGTLLLGVFAEDTVSQIGINDSLWYPYDEALVLKPLPNNDLLLSFAFQLQSEPFDPAVSSMSYDAYEHYTTFPRAIPPLLESTATRQFHLRFTRGFWDALSWGQLPHAGKEAGASGVELWSQVQAMDQEQAFHNWKKLSNSLSGLFCSSLNFIDESRTTFPRRSYASDIGAPLFNSTEKLYLMRASLPNEPICTENLTPFIKLLPTRGKSGLTSLLDGHKLFDSLWNSISLDIATICSEDEDALCHYEMDARIEMVTHVPSALARGERPIPKPLDGNTLRCDTDKPFDSYQCFPLPEPSQTHFKLSQLFARPINNGNLFANRPTRICAEVDRSTWTAFLSVDDTIFSTHDNCFDLSNDQNEGGSGYDFILESTDTTKVTPIVPVPIHVSRSLTGNGQDRGGMRIVFHNDNDTPVKLIYFESLPWFMRVYLSSLQITSTTSPQLQENDIILDKYYLQAADRKRPGHLEFTMLIPANTDIVMTYQFDKALLQFAEYPPDANHGFEIDAAVITVLSLESSSSLYEMRTSTLLLSLSTPDFSMPYNVIILTSTIMGLIFGMLYNLMVKRMVTVEEADKITLQSGLKYKLLKLKEKFLGKKKTKTD
- expression_or_secretion [2]: no change
- enzymatic_activity [3]: no change

B2: Gpi16: N184Q (protein)
parent chain: MILTLAYFMLGTLLLGVFAEDTVSQIGINDSLWYPYDEALVLKPLPNNDLLLSFAFQLQSEPFDPAVSSMSYDAYEHYTTFPRAIPPLLESTATRQFHLRFTRGFWDALSWGQLPHAGKEAGASGVELWSQVQAMDQEQAFHNWKKLSNSLSGLFCSSLNFIDESRTTFPRRSYASDIGAPLFNSTEKLYLMRASLPNEPICTENLTPFIKLLPTRGKSGLTSLLDGHKLFDSLWNSISLDIATICSEDEDALCHYEMDARIEMVTHVPSALARGERPIPKPLDGNTLRCDTDKPFDSYQCFPLPEPSQTHFKLSQLFARPINNGNLFANRPTRICAEVDRSTWTAFLSVDDTIFSTHDNCFDLSNDQNEGGSGYDFILESTDTTKVTPIVPVPIHVSRSLTGNGQDRGGMRIVFHNDNDTPVKLIYFESLPWFMRVYLSSLQITSTTSPQLQENDIILDKYYLQAADRKRPGHLEFTMLIPANTDIVMTYQFDKALLQFAEYPPDANHGFEIDAAVITVLSLESSSSLYEMRTSTLLLSLSTPDFSMPYNVIILTSTIMGLIFGMLYNLMVKRMVTVEEADKITLQSGLKYKLLKLKEKFLGKKKTKTD
- expression_or_secretion [2]: no change
- enzymatic_activity [3]: no change

B3: Gpi17: N228Q (protein)
parent chain: MSNANLRKWVGFCFVAIYLFLGVPLWYKLTTVYRASLPINYIESLQNNKFQDIHLVIPVYVKSDTYRFPDVHDAIQVQVNHLLNSQEQRVPWSLQVLPYNETIEQMESEGNQFHVVTLKLDEFIGYSSAYDTKETLVYYDDAAVLSNDLPFFVAQTLVEHTFQLEWTHLNKTCEGVSTNNDVAISYDPNIHLSVTLLSGDGNPVAWEIEPTLTDYFSPFRKFLSPLVNFTVDSSIVYHNDLNLHSLNGSCTSVTWFDLSHTIDLSELSSMAYYPEDSALNLAIVFPSASSSPDGLAFINGTRISDEITTLDWNSYLVPQWGVIIINKMPLKPNSVISEDYLEPMMYRFATDIFQLLGLTEGSQDLLSPYITIDSFKRLTILQNLDKATETLWSLVKLTQQFQGMSIPREVSDNVIEALDLRLQIIDLLNDPGKGGDIVWNNALHLSNELVKLCEKAFFNGEMVQQNFFPQEHMIAVYLPLLGPISAVMFFGFYNVMKEKNQKSKKNGTEREVAKEKLELKEAQKLHAIDGEDEL
- expression_or_secretion [2]: no change
- enzymatic_activity [3]: decreases

B4: Gpi17: N299Q (protein)
parent chain: MSNANLRKWVGFCFVAIYLFLGVPLWYKLTTVYRASLPINYIESLQNNKFQDIHLVIPVYVKSDTYRFPDVHDAIQVQVNHLLNSQEQRVPWSLQVLPYNETIEQMESEGNQFHVVTLKLDEFIGYSSAYDTKETLVYYDDAAVLSNDLPFFVAQTLVEHTFQLEWTHLNKTCEGVSTNNDVAISYDPNIHLSVTLLSGDGNPVAWEIEPTLTDYFSPFRKFLSPLVNFTVDSSIVYHNDLNLHSLNGSCTSVTWFDLSHTIDLSELSSMAYYPEDSALNLAIVFPSASSSPDGLAFINGTRISDEITTLDWNSYLVPQWGVIIINKMPLKPNSVISEDYLEPMMYRFATDIFQLLGLTEGSQDLLSPYITIDSFKRLTILQNLDKATETLWSLVKLTQQFQGMSIPREVSDNVIEALDLRLQIIDLLNDPGKGGDIVWNNALHLSNELVKLCEKAFFNGEMVQQNFFPQEHMIAVYLPLLGPISAVMFFGFYNVMKEKNQKSKKNGTEREVAKEKLELKEAQKLHAIDGEDEL
- expression_or_secretion [2]: no change
- enzymatic_activity [3]: decreases
